Data: article PMC3653069

Biological target: MutSα (MSH2 subunit);MutSα (MSH6 subunit) (human;human, UniProt P43246;P52701 1-934;1-1360, |)
Assay: EMSA

B1: rC/G (dsDNA)
DNA 1: CCAGACGTCTGTCGACGTTGGGAAGCTTGAG
DNA 2: CTCAAGCTTCCCAACGTCGACAGACGTCTGG
modifications: single ribocytidine at position 13 of strand 1 (rC opposite G)
Question: Does B1 bind?
Answer: Result: no binding
